In the supplement of paper PMC9233669:
Variants at the floor of the assay were thinned out.

Assays:
biotinyl-Met-oxazolone = assay: self-aminoacylation, catalytic enhancement (BMO) (fold over background); higher = more active; k-Seq, kA / k0A0; sequences stand for … in GGGAAUGGAUCCACAUCUACGAAUUC…UUCACUGCAGACUUGACGAAGCUG
Method in brief: (§1)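 Mutagenized RNA pools (0.43 μM; 21-nt variable region) were treated with 2–1250 μM of each biotinyl-aminoacyl-oxazolone. Conditions were 50 μL HEPES/NaCl/KCl/MgCl2/CaCl2 buffer, 5% acetonitrile, pH 6.9–7.0, room temperature, 90 minutes. Catalytic enhancement, the median kA relative to the uncatalyzed rate, was derived from streptavidin capture, qPCR and Illumina sequencing.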

biotinyl-Val-oxazolone = assay: self-aminoacylation, catalytic enhancement (BVO) (fold over background); higher = more active; k-Seq, kA / k0A0; sequences stand for … in GGGAAUGGAUCCACAUCUACGAAUUC…UUCACUGCAGACUUGACGAAGCUG
Method in brief: as §1

biotinyl-Phe-oxazolone = assay: self-aminoacylation, catalytic enhancement (BFO) (fold over background); higher = more active; k-Seq, kA / k0A0; sequences stand for … in GGGAAUGGAUCCACAUCUACGAAUUC…UUCACUGCAGACUUGACGAAGCUG
Method in brief: as §1

biotinyl-Trp-oxazolone = assay: self-aminoacylation, catalytic enhancement (BWO) (fold over background); higher = more active; k-Seq, kA / k0A0; sequences stand for … in GGGAAUGGAUCCACAUCUACGAAUUC…UUCACUGCAGACUUGACGAAGCUG
Method in brief: as §1

biotinyl-Ile-oxazolone = assay: self-aminoacylation, catalytic enhancement (BIO) (fold over background); higher = more active; k-Seq, kA / k0A0; sequences stand for … in GGGAAUGGAUCCACAUCUACGAAUUC…UUCACUGCAGACUUGACGAAGCUG
Method in brief: as §1

biotinyl-Leu-oxazolone = assay: self-aminoacylation, catalytic enhancement (BLO) (fold over background); higher = more active; k-Seq, kA / k0A0; sequences stand for … in GGGAAUGGAUCCACAUCUACGAAUUC…UUCACUGCAGACUUGACGAAGCUG
Method in brief: as §1

Work on “AUUCACCCAGGUCCUCGGGUG [Fam2.2 aminoacylation ribozyme variant]” yielded a self-aminoacylation (biotinyl-Met-oxazolone) of 5.45, a self-aminoacylation (biotinyl-Val-oxazolone) of 3.89 and a self-aminoacylation (biotinyl-Phe-oxazolone) of 35.5. The self-aminoacylation (biotinyl-Trp-oxazolone) was 5.85, the self-aminoacylation (biotinyl-Ile-oxazolone) was 3.22 and the self-aminoacylation (biotinyl-Leu-oxazolone) was 6.67.

“AUUCACCCAUGUCAUCGGGUG [Fam2.2 aminoacylation ribozyme variant]” gave a self-aminoacylation (biotinyl-Met-oxazolone) of 6.58, a self-aminoacylation (biotinyl-Val-oxazolone) of 3.15 and a self-aminoacylation (biotinyl-Phe-oxazolone) of 46.4. The self-aminoacylation (biotinyl-Trp-oxazolone) was 5.22, the self-aminoacylation (biotinyl-Ile-oxazolone) was 3.72 and the self-aminoacylation (biotinyl-Leu-oxazolone) was 7.33.

Work on “AUUCACCGAGGUCACCGGGUG [Fam2.2 aminoacylation ribozyme variant]” yielded a self-aminoacylation (biotinyl-Met-oxazolone) of 9.61, a self-aminoacylation (biotinyl-Val-oxazolone) of 5.88 and a self-aminoacylation (biotinyl-Phe-oxazolone) of 74.9. The self-aminoacylation (biotinyl-Trp-oxazolone) was 8.69, the self-aminoacylation (biotinyl-Ile-oxazolone) was 6.91 and the self-aminoacylation (biotinyl-Leu-oxazolone) was 10.8.

For “AUUCACCGAGGUCAUCGCGUG [Fam2.2 aminoacylation ribozyme variant]”, the self-aminoacylation (biotinyl-Met-oxazolone) was 16, the self-aminoacylation (biotinyl-Val-oxazolone) was 9.71 and the self-aminoacylation (biotinyl-Phe-oxazolone) was 117. It also gave a self-aminoacylation (biotinyl-Trp-oxazolone) of 14.8, a self-aminoacylation (biotinyl-Ile-oxazolone) of 7.64 and a self-aminoacylation (biotinyl-Leu-oxazolone) of 19.1.

“AUUCACCGAGGUCAUCGGGGG [Fam2.2 aminoacylation ribozyme variant]” showed a self-aminoacylation (biotinyl-Met-oxazolone) of 2.95, a self-aminoacylation (biotinyl-Val-oxazolone) of 2.71 and a self-aminoacylation (biotinyl-Phe-oxazolone) of 7.01. It also gave a self-aminoacylation (biotinyl-Trp-oxazolone) of 3.16, a self-aminoacylation (biotinyl-Ile-oxazolone) of 2.59 and a self-aminoacylation (biotinyl-Leu-oxazolone) of 2.65.

“AUUCACCGAGGUCAUCUGGUG [Fam2.2 aminoacylation ribozyme variant]” showed a self-aminoacylation (biotinyl-Met-oxazolone) of 4.31, a self-aminoacylation (biotinyl-Val-oxazolone) of 2.69 and a self-aminoacylation (biotinyl-Phe-oxazolone) of 34.6. The self-aminoacylation (biotinyl-Trp-oxazolone) was 3.61, the self-aminoacylation (biotinyl-Ile-oxazolone) was 2.39 and the self-aminoacylation (biotinyl-Leu-oxazolone) was 5.72.

For “AUUCACCGAGGUCAUGGGGUG [Fam2.2 aminoacylation ribozyme variant]”, the self-aminoacylation (biotinyl-Met-oxazolone) was 11.4, the self-aminoacylation (biotinyl-Val-oxazolone) was 6.55 and the self-aminoacylation (biotinyl-Phe-oxazolone) was 86.3. The self-aminoacylation (biotinyl-Trp-oxazolone) was 11.4, the self-aminoacylation (biotinyl-Ile-oxazolone) was 6.15 and the self-aminoacylation (biotinyl-Leu-oxazolone) was 14.7.

“AUUCACCGCGGUCAUCGGGUG [Fam2.2 aminoacylation ribozyme variant]” was tested, and the self-aminoacylation (biotinyl-Met-oxazolone) was 7.49, the self-aminoacylation (biotinyl-Val-oxazolone) was 5.04 and the self-aminoacylation (biotinyl-Phe-oxazolone) was 59.7. For the same sequence, the self-aminoacylation (biotinyl-Trp-oxazolone) was 7.69, the self-aminoacylation (biotinyl-Ile-oxazolone) was 4.65 and the self-aminoacylation (biotinyl-Leu-oxazolone) was 8.56.

“AUUCACCUAAGUCAGCGGGUG [Fam2.2 aminoacylation ribozyme variant]” was tested, and the self-aminoacylation (biotinyl-Met-oxazolone) was 3.78, the self-aminoacylation (biotinyl-Val-oxazolone) was 2.88 and the self-aminoacylation (biotinyl-Phe-oxazolone) was 25. For the same sequence, the self-aminoacylation (biotinyl-Trp-oxazolone) was 2.8, the self-aminoacylation (biotinyl-Ile-oxazolone) was 3.01 and the self-aminoacylation (biotinyl-Leu-oxazolone) was 5.01.

For “AUUCACCUAAGUCUUCGGGUG [Fam2.2 aminoacylation ribozyme variant]”, the self-aminoacylation (biotinyl-Met-oxazolone) was 4.98, the self-aminoacylation (biotinyl-Val-oxazolone) was 3.85 and the self-aminoacylation (biotinyl-Phe-oxazolone) was 33.4. The self-aminoacylation (biotinyl-Trp-oxazolone) was 5.42, the self-aminoacylation (biotinyl-Ile-oxazolone) was 3.49 and the self-aminoacylation (biotinyl-Leu-oxazolone) was 6.66.

“AUUCACCUACGCCAUCGGGUG [Fam2.2 aminoacylation ribozyme variant]” showed a self-aminoacylation (biotinyl-Met-oxazolone) of 3.6, a self-aminoacylation (biotinyl-Val-oxazolone) of 2.11 and a self-aminoacylation (biotinyl-Phe-oxazolone) of 21.9. It also gave a self-aminoacylation (biotinyl-Trp-oxazolone) of 3.52, a self-aminoacylation (biotinyl-Ile-oxazolone) of 2.1 and a self-aminoacylation (biotinyl-Leu-oxazolone) of 4.34.

Sequence “AUUCACCUACGUCAUCGAGUG [Fam2.2 aminoacylation ribozyme variant]” has a self-aminoacylation (biotinyl-Met-oxazolone) of 4.25, a self-aminoacylation (biotinyl-Val-oxazolone) of 2.71 and a self-aminoacylation (biotinyl-Phe-oxazolone) of 12.5. The self-aminoacylation (biotinyl-Trp-oxazolone) was 3.77, the self-aminoacylation (biotinyl-Ile-oxazolone) was 2.45 and the self-aminoacylation (biotinyl-Leu-oxazolone) was 4.08.

In the case of “AUUCACCUACGUCAUCGGGCG [Fam2.2 aminoacylation ribozyme variant]”, the self-aminoacylation (biotinyl-Met-oxazolone) is reported as 3.42, the self-aminoacylation (biotinyl-Val-oxazolone) is reported as 2.97 and the self-aminoacylation (biotinyl-Phe-oxazolone) is reported as 16.3. It also gave a self-aminoacylation (biotinyl-Trp-oxazolone) of 2.75, a self-aminoacylation (biotinyl-Ile-oxazolone) of 2.62 and a self-aminoacylation (biotinyl-Leu-oxazolone) of 3.26.

In the case of “AUUCACCUACGUCAUCGUGUG [Fam2.2 aminoacylation ribozyme variant]”, the self-aminoacylation (biotinyl-Met-oxazolone) is reported as 0.602, the self-aminoacylation (biotinyl-Val-oxazolone) is reported as 0.818 and the self-aminoacylation (biotinyl-Phe-oxazolone) is reported as 0.74. The self-aminoacylation (biotinyl-Trp-oxazolone) was 0.425, the self-aminoacylation (biotinyl-Ile-oxazolone) was 0.632 and the self-aminoacylation (biotinyl-Leu-oxazolone) was 0.86.

“AUUCACCUACGUCAUGGGGUG [Fam2.2 aminoacylation ribozyme variant]” showed a self-aminoacylation (biotinyl-Met-oxazolone) of 2.5, a self-aminoacylation (biotinyl-Val-oxazolone) of 2.01 and a self-aminoacylation (biotinyl-Phe-oxazolone) of 11. The self-aminoacylation (biotinyl-Trp-oxazolone) was 1.67, the self-aminoacylation (biotinyl-Ile-oxazolone) was 1.79 and the self-aminoacylation (biotinyl-Leu-oxazolone) was 2.62.

With “AUUCACCUACGUCCUCGGGUG [Fam2.2 aminoacylation ribozyme variant]” the self-aminoacylation (biotinyl-Met-oxazolone) was 4.71, the self-aminoacylation (biotinyl-Val-oxazolone) was 2.12 and the self-aminoacylation (biotinyl-Phe-oxazolone) was 33.2. It also gave a self-aminoacylation (biotinyl-Trp-oxazolone) of 4.21, a self-aminoacylation (biotinyl-Ile-oxazolone) of 2.7 and a self-aminoacylation (biotinyl-Leu-oxazolone) of 7.17.

With “AUUCACCUACGUCUUCGGGUG [Fam2.2 aminoacylation ribozyme variant]” the self-aminoacylation (biotinyl-Met-oxazolone) was 3.36, the self-aminoacylation (biotinyl-Val-oxazolone) was 2.81 and the self-aminoacylation (biotinyl-Phe-oxazolone) was 24. For the same sequence, the self-aminoacylation (biotinyl-Trp-oxazolone) was 3.34, the self-aminoacylation (biotinyl-Ile-oxazolone) was 2.44 and the self-aminoacylation (biotinyl-Leu-oxazolone) was 4.28.

In the case of “AUUCACCUAGAUCAUUGGGUG [Fam2.2 aminoacylation ribozyme variant]”, the self-aminoacylation (biotinyl-Met-oxazolone) is reported as 3.71, the self-aminoacylation (biotinyl-Val-oxazolone) is reported as 1.91 and the self-aminoacylation (biotinyl-Phe-oxazolone) is reported as 18. For the same sequence, the self-aminoacylation (biotinyl-Trp-oxazolone) was 3.54, the self-aminoacylation (biotinyl-Ile-oxazolone) was 2.15 and the self-aminoacylation (biotinyl-Leu-oxazolone) was 3.94.

“AUUCACCUAGCUCAUCGGGUA [Fam2.2 aminoacylation ribozyme variant]” showed a self-aminoacylation (biotinyl-Met-oxazolone) of 2.03, a self-aminoacylation (biotinyl-Val-oxazolone) of 2.54 and a self-aminoacylation (biotinyl-Phe-oxazolone) of 11.2. For the same sequence, the self-aminoacylation (biotinyl-Trp-oxazolone) was 2.53, the self-aminoacylation (biotinyl-Ile-oxazolone) was 2.08 and the self-aminoacylation (biotinyl-Leu-oxazolone) was 2.41.

Sequence “AUUCACCUAGGCCAACGGGUG [Fam2.2 aminoacylation ribozyme variant]” has a self-aminoacylation (biotinyl-Met-oxazolone) of 2.61, a self-aminoacylation (biotinyl-Val-oxazolone) of 2.04 and a self-aminoacylation (biotinyl-Phe-oxazolone) of 14.5. It also gave a self-aminoacylation (biotinyl-Trp-oxazolone) of 3.02, a self-aminoacylation (biotinyl-Ile-oxazolone) of 2.23 and a self-aminoacylation (biotinyl-Leu-oxazolone) of 4.01.

In the case of “AUUCACCUAGGCCACCGGGUG [Fam2.2 aminoacylation ribozyme variant]”, the self-aminoacylation (biotinyl-Met-oxazolone) is reported as 5.04, the self-aminoacylation (biotinyl-Val-oxazolone) is reported as 3.27 and the self-aminoacylation (biotinyl-Phe-oxazolone) is reported as 13.6. It also gave a self-aminoacylation (biotinyl-Trp-oxazolone) of 4.16, a self-aminoacylation (biotinyl-Ile-oxazolone) of 3.83 and a self-aminoacylation (biotinyl-Leu-oxazolone) of 6.51.

“AUUCACCUAGGCCAGCGGGUG [Fam2.2 aminoacylation ribozyme variant]” showed a self-aminoacylation (biotinyl-Met-oxazolone) of 4.21, a self-aminoacylation (biotinyl-Val-oxazolone) of 4.07 and a self-aminoacylation (biotinyl-Phe-oxazolone) of 24.8. It also gave a self-aminoacylation (biotinyl-Trp-oxazolone) of 3.78, a self-aminoacylation (biotinyl-Ile-oxazolone) of 3.59 and a self-aminoacylation (biotinyl-Leu-oxazolone) of 4.78.

“AUUCACCUAGGCCAUCGGGCG [Fam2.2 aminoacylation ribozyme variant]” was tested, and the self-aminoacylation (biotinyl-Met-oxazolone) was 3.01, the self-aminoacylation (biotinyl-Val-oxazolone) was 3.17 and the self-aminoacylation (biotinyl-Phe-oxazolone) was 15.5. It also gave a self-aminoacylation (biotinyl-Trp-oxazolone) of 5.38, a self-aminoacylation (biotinyl-Ile-oxazolone) of 2.65 and a self-aminoacylation (biotinyl-Leu-oxazolone) of 3.11.
